Data: patent US20250011363A1, “OPTIMIZED SHORTENED PEPTIDE THAT BINDS TO ACETYLCHOLINE RECEPTOR, AND USE THEREOF” (SKINMED CO., LTD., priority 2021, published 2025)

These substances were tested against acetylcholine receptor (Homo sapiens, UniProt P02708) (assay: SPR binding affinity (RU) of optimized 5mer/6mer/7mer peptides, Examples 6-7). Settings: SPR, Resonance Units; peptides tested at 10 μM; 6mer-1 Bottom sequence.
Sequence of acetylcholine receptor (P02708 21-457): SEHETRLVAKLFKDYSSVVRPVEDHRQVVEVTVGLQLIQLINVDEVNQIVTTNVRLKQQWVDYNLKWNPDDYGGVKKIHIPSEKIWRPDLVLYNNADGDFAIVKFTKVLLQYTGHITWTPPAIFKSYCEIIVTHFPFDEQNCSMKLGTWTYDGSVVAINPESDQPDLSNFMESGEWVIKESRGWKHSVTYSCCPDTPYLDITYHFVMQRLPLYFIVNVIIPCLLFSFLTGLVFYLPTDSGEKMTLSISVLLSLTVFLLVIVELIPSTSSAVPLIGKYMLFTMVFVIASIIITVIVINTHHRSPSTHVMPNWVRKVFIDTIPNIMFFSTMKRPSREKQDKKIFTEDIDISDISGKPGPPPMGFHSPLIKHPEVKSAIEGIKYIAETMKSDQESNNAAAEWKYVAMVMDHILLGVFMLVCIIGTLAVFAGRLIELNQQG
Outline: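 600 peptides per series (5mer, 6mer-1, 6mer-2), made from high- or low-frequency amino acid combinations, are screened by SPR at 10 μM; binding is recorded in RU.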
6mer-1-998 (KRNPVK) gave a Binding affinity of 41 Ru. 6mer-1-999 (RKATNR) was tested, and the Binding affinity was 24 Ru. 6mer-1-1000 (RKMSHR) was tested, and the Binding affinity was 28 Ru. 6mer-1-1002 (KRIHMK) showed a Binding affinity of 29 Ru. In the case of 6mer-1-1003 (RKYCHR), the Binding affinity is reported as 24 Ru. With 6mer-1-1004 (RKHSHR) the Binding affinity was 41 Ru. 6mer-1-1005 (RKPPDR) was tested, and the Binding affinity was 26 Ru. 6mer-1-1006 (KKDKIK) showed a Binding affinity of 25 Ru. In the case of 6mer-1-1007 (RKPTDR), the Binding affinity is reported as 39 Ru. With 6mer-1-1008 (RKPWAR) the Binding affinity was 21 Ru. 6mer-1-1009 (RKMSKK) gave a Binding affinity of 29 Ru. 6mer-1-1010 (KKPKHK) showed a Binding affinity of 33 Ru. For 6mer-1-1011 (RKKPEK), the Binding affinity was 35 Ru. Substance 6mer-1-1012 (RRAWVR) has a Binding affinity of 35 Ru. 6mer-1-1013 (KKTTNK) showed a Binding affinity of 29 Ru. 6mer-1-1014 (KKNAWR) was tested, and the Binding affinity was 25 Ru. 6mer-1-1015 (KREEWR) showed a Binding affinity of 26 Ru. For 6mer-1-1016 (KRHTHR), the Binding affinity was 21 Ru. Substance 6mer-1-1017 (KRANMK) has a Binding affinity of 37 Ru. For 6mer-1-1018 (KKTAFK), the Binding affinity was 28 Ru. 6mer-1-1019 (KRDAWR) gave a Binding affinity of 37 Ru. Substance 6mer-1-1020 (KKMEAK) has a Binding affinity of 38 Ru. With 6mer-1-1021 (KKHDIK) the Binding affinity was 41 Ru. 6mer-1-1022 (RKDTVR) was tested, and the Binding affinity was 22 Ru. 6mer-1-1023 (KRIMHK) gave a Binding affinity of 39 Ru. With 6mer-1-1024 (RKTEIR) the Binding affinity was 36 Ru. 6mer-1-1025 (KRFAKR) showed a Binding affinity of 33 Ru. 6mer-1-1026 (RKKCER) was tested, and the Binding affinity was 30 Ru. With 6mer-1-1027 (KKPWHK) the Binding affinity was 22 Ru. 6mer-1-1028 (RRHCWR) was tested, and the Binding affinity was 36 Ru. 6mer-1-1029 (RRCMAK) gave a Binding affinity of 40 Ru. In the case of 6mer-1-1030 (KKFCFR), the Binding affinity is reported as 30 Ru. With 6mer-1-1031 (RKDTHK) the Binding affinity was 38 Ru. In the case of 6mer-1-1032 (KKTSMR), the Binding affinity is reported as 27 Ru. In the case of 6mer-1-1033 (KRHMVK), the Binding affinity is reported as 30 Ru. Work on 6mer-1-1034 (KKASDR) yielded a Binding affinity of 24 Ru. With 6mer-1-1035 (RRCHHR) the Binding affinity was 34 Ru. In the case of 6mer-1-1036 (KKITFR), the Binding affinity is reported as 21 Ru. 6mer-1-1037 (RRKNNR) was tested, and the Binding affinity was 36 Ru. With 6mer-1-1038 (RRKKIR) the Binding affinity was 21 Ru. For 6mer-1-1039 (KRADIK), the Binding affinity was 40 Ru. In the case of 6mer-1-1040 (KRIEFR), the Binding affinity is reported as 28 Ru. 6mer-1-1041 (RKEHGK) showed a Binding affinity of 23 Ru. Substance 6mer-1-1042 (KKITAR) has a Binding affinity of 40 Ru. 6mer-1-1043 (KRAAHR) showed a Binding affinity of 30 Ru. Work on 6mer-1-1044 (KKHHIR) yielded a Binding affinity of 24 Ru. 6mer-1-1045 (KKTPGR) showed a Binding affinity of 27 Ru. Substance 6mer-1-1046 (RKDPHR) has a Binding affinity of 38 Ru. 6mer-1-1047 (RKATDK) gave a Binding affinity of 30 Ru. 6mer-1-1048 (RRCMMK) showed a Binding affinity of 36 Ru. Substance 6mer-1-1049 (KKDHKK) has a Binding affinity of 31 Ru. Substance 6mer-1-1050 (KKMEDR) has a Binding affinity of 38 Ru. With 6mer-1-1051 (KKKSFK) the Binding affinity was 43 Ru. 6mer-1-1052 (KRHWIR) showed a Binding affinity of 33 Ru. With 6mer-1-1053 (RKYTPK) the Binding affinity was 27 Ru. 6mer-1-1054 (RRMKVK) gave a Binding affinity of 37 Ru. In the case of 6mer-1-1055 (KRCNDK), the Binding affinity is reported as 40 Ru. For 6mer-1-1056 (RRNTAK), the Binding affinity was 27 Ru. Work on 6mer-1-1057 (KRKPVR) yielded a Binding affinity of 43 Ru. With 6mer-1-1058 (KRFPWR) the Binding affinity was 21 Ru. In the case of 6mer-1-1059 (RRETVK), the Binding affinity is reported as 39 Ru. 6mer-1-1060 (KRYNVR) gave a Binding affinity of 21 Ru. In the case of 6mer-1-1061 (RRISIR), the Binding affinity is reported as 41 Ru. 6mer-1-1062 (RRICMR) was tested, and the Binding affinity was 27 Ru. For 6mer-1-1063 (KKIDHK), the Binding affinity was 25 Ru. In the case of 6mer-1-1064 (RKPTAK), the Binding affinity is reported as 41 Ru. 6mer-1-1065 (KRDKAK) gave a Binding affinity of 23 Ru. Substance 6mer-1-1066 (RKEDVK) has a Binding affinity of 23 Ru. 6mer-1-1067 (RRKHWK) showed a Binding affinity of 38 Ru. In the case of 6mer-1-1068 (KRYHIR), the Binding affinity is reported as 31 Ru. Work on 6mer-1-1069 (KKIWAR) yielded a Binding affinity of 23 Ru. In the case of 6mer-1-1070 (KKTCDK), the Binding affinity is reported as 24 Ru. 6mer-1-1071 (RKTKAK) was tested, and the Binding affinity was 38 Ru. 6mer-1-1072 (KKCTPR) was tested, and the Binding affinity was 36 Ru. 6mer-1-1073 (RKYMWK) gave a Binding affinity of 27 Ru. Substance 6mer-1-1074 (KRTCGR) has a Binding affinity of 24 Ru. 6mer-1-1075 (KKPSVK) was tested, and the Binding affinity was 38 Ru. 6mer-1-1076 (RKKEPK) gave a Binding affinity of 43 Ru. For 6mer-1-1077 (RRKWGR), the Binding affinity was 24 Ru. In the case of 6mer-1-1078 (RRPDIK), the Binding affinity is reported as 25 Ru. 6mer-1-1079 (RKHPVK) gave a Binding affinity of 25 Ru. With 6mer-1-1080 (KKHNMR) the Binding affinity was 38 Ru. With 6mer-1-1081 (KRPSNK) the Binding affinity was 23 Ru. Work on 6mer-1-1082 (KKTCDR) yielded a Binding affinity of 37 Ru. Work on 6mer-1-1083 (KKNAVR) yielded a Binding affinity of 36 Ru. 6mer-1-1084 (KKCCPK) was tested, and the Binding affinity was 25 Ru. For 6mer-1-1085 (KREAMK), the Binding affinity was 33 Ru. Work on 6mer-1-1086 (RKEANK) yielded a Binding affinity of 22 Ru. For 6mer-1-1087 (KKPWKR), the Binding affinity was 27 Ru. For 6mer-1-1088 (RRETHK), the Binding affinity was 38 Ru. In the case of 6mer-1-1089 (RKFTKK), the Binding affinity is reported as 31 Ru. Work on 6mer-1-1090 (KKTMWR) yielded a Binding affinity of 27 Ru. Work on 6mer-1-1091 (KKDDGK) yielded a Binding affinity of 32 Ru. Work on 6mer-1-1092 (RKYHDK) yielded a Binding affinity of 43 Ru. Work on 6mer-1-1093 (RRKSDR) yielded a Binding affinity of 37 Ru. Substance 6mer-1-1094 (RRMAIK) has a Binding affinity of 42 Ru. With 6mer-1-1095 (RRCHVK) the Binding affinity was 27 Ru. With 6mer-1-1096 (RKPEPR) the Binding affinity was 23 Ru. With 6mer-1-1097 (RKNCNK) the Binding affinity was 39 Ru. 6mer-1-1098 (RKKDMR) was tested, and the Binding affinity was 42 Ru. Work on 6mer-1-1099 (RRKTDR) yielded a Binding affinity of 24 Ru. Work on 6mer-1-1100 (KRMSHK) yielded a Binding affinity of 43 Ru. Substance 6mer-1-1101 (RRECDK) has a Binding affinity of 37 Ru. Substance 6mer-1-1102 (KRFTKK) has a Binding affinity of 35 Ru. 6mer-1-1103 (KREDNK) gave a Binding affinity of 27 Ru. 6mer-1-1104 (KRNSAR) showed a Binding affinity of 28 Ru. 6mer-1-1105 (RRCTAR) was tested, and the Binding affinity was 40 Ru. 6mer-1-1106 (KRFMNK) showed a Binding affinity of 39 Ru. 6mer-1-1107 (KRCPPR) was tested, and the Binding affinity was 36 Ru. Substance 6mer-1-1108 (RRAHNK) has a Binding affinity of 43 Ru. With 6mer-1-1109 (KRCCVR) the Binding affinity was 41 Ru. Work on 6mer-1-1110 (RKFTER) yielded a Binding affinity of 24 Ru. 6mer-1-1111 (RRASPR) showed a Binding affinity of 38 Ru. In the case of 6mer-1-1112 (KKDPWK), the Binding affinity is reported as 27 Ru. In the case of 6mer-1-1113 (RRCTMK), the Binding affinity is reported as 28 Ru. In the case of 6mer-1-1114 (KKFNFK), the Binding affinity is reported as 38 Ru. Substance 6mer-1-1115 (RKCAFR) has a Binding affinity of 43 Ru. In the case of 6mer-1-1116 (KRHPFR), the Binding affinity is reported as 35 Ru. 6mer-1-1117 (KKEWFR) showed a Binding affinity of 40 Ru. For 6mer-1-1118 (KKDTIK), the Binding affinity was 33 Ru. With 6mer-1-1119 (KRIWVR) the Binding affinity was 31 Ru. 6mer-1-1120 (RRKEAK) gave a Binding affinity of 22 Ru. Work on 6mer-1-1121 (KKTWWR) yielded a Binding affinity of 28 Ru. With 6mer-1-1122 (RRTMGR) the Binding affinity was 33 Ru. 6mer-1-1123 (RRDNVK) gave a Binding affinity of 41 Ru. In the case of 6mer-1-1124 (KKDEIR), the Binding affinity is reported as 21 Ru. For 6mer-1-1125 (KKPTDR), the Binding affinity was 26 Ru. 6mer-1-1126 (RRHCDK) was tested, and the Binding affinity was 41 Ru. 6mer-1-1127 (RKMMMK) showed a Binding affinity of 34 Ru. For 6mer-1-1128 (KKKKPK), the Binding affinity was 39 Ru. For 6mer-1-1129 (RKDHAR), the Binding affinity was 39 Ru. 6mer-1-1130 (RKATFR) showed a Binding affinity of 31 Ru. In the case of 6mer-1-1131 (RKDNIK), the Binding affinity is reported as 42 Ru. Substance 6mer-1-1132 (RRKAER) has a Binding affinity of 31 Ru. 6mer-1-1133 (KKPNIK) showed a Binding affinity of 24 Ru. Substance 6mer-1-1134 (KRMSWK) has a Binding affinity of 22 Ru. In the case of 6mer-1-1135 (KKHTER), the Binding affinity is reported as 26 Ru.

Same assay, conditions: SPR, peptides tested at 10 μM; 6mer-1 Bottom sequence (Table 11)
In the case of 6mer-1-977 (RRPCFR), the Binding affinity is reported as 43 Ru. 6mer-1-978 (RRKSHK) showed a Binding affinity of 43 Ru. 6mer-1-979 (RRYWEK) gave a Binding affinity of 42 Ru. In the case of 6mer-1-980 (RKICAK), the Binding affinity is reported as 33 Ru. In the case of 6mer-1-981 (RKDDKK), the Binding affinity is reported as 27 Ru. In the case of 6mer-1-982 (KRCPDR), the Binding affinity is reported as 35 Ru. Substance 6mer-1-983 (KRPHKK) has a Binding affinity of 38 Ru. Work on 6mer-1-984 (KKESDK) yielded a Binding affinity of 33 Ru. With 6mer-1-985 (KRKSER) the Binding affinity was 22 Ru. Work on 6mer-1-986 (KKAEEK) yielded a Binding affinity of 22 Ru. Work on 6mer-1-987 (RRTEFK) yielded a Binding affinity of 34 Ru. With 6mer-1-988 (KRYPDR) the Binding affinity was 24 Ru. Substance 6mer-1-989 (KRATVR) has a Binding affinity of 27 Ru. Substance 6mer-1-990 (RRFTER) has a Binding affinity of 40 Ru. In the case of 6mer-1-991 (RKAHDK), the Binding affinity is reported as 25 Ru. Substance 6mer-1-992 (RRCTAK) has a Binding affinity of 28 Ru. Work on 6mer-1-993 (KRAHDK) yielded a Binding affinity of 26 Ru. With 6mer-1-994 (KKHEFR) the Binding affinity was 37 Ru. For 6mer-1-995 (KRCHHR), the Binding affinity was 33 Ru. For 6mer-1-996 (RRPPWK), the Binding affinity was 39 Ru. Work on 6mer-1-997 (KKPTFR) yielded a Binding affinity of 35 Ru.
